The source of these data is the RNAGym collection of RNA variant scans (doi:10.1093/molbev/msab373).

B1: Azoarcus group I ribozyme (parent)
chain: GUGCCUUGCGCCGGGAAACCACGCAAGGGAUGGUGUCAAAUUCGGCGAAACCUAAGCGCCCGCCCGGGCGUAUGGCAACGCCGAGCCAAGCUUCGGCGCCUGCGCCGAUGAAGGUGUAGAGACUAGACGGCACCCACCUAAGGCAAACGCUAUGGUGAAGGCAUAGUCCAGGGAGUGGCGAAAGUCACACAAACCGG

Variants of B1 are the subject of the series. Put plainly: reverse-splicing fitness (ratio to wild type); higher = more active; in vitro selection; Mg2+ level not given. In short, it runs like this: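 An in vitro group I ribozyme library with randomized positions was T7-transcribed and gel-purified. In triplicate, 10 pmol RNA in EPPS pH 7.5 was reacted with 50 pmoles of a 30-nt RNA substrate for 1 h at 37 °C across several added MgCl2 levels (1–48 mM), then stopped with EDTA. Products were reverse transcribed from a substrate-complementary primer, PCR-amplified and sequenced (HiSeq 4000). Fitness is a variant's read proportion after selection over that before, normalised to wild type.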
For the variant C82A A111C A120G A145C C150A C169G U176A, the reverse-splicing fitness was 0.0253.
Under C82A A111U C150U U176C stands 0.0751.
Under C82G A111C A120G A145G C150G U176C stands 0.0113; under C82A A120G A145U C150U C169G U176G, 0.00454.
Then C82G C150G C169A U176A, with 0.0112.
With C82G C150G C169A U176G, the reverse-splicing fitness came to 0.00752.
Then C82A A111C A120C A145C C169A, with 0.00691.
For C82G A120G A145U C150G C169U U176G, the reverse-splicing fitness was 0.00487.
Then C82U A111G A120U A145U C150A C169G U176A, with 0.00245.
Then C82A A111C A120G A145G C169U U176C, with 0.0157; and C82G A111U A120C A145G C150U C169G U176C, with 0.0196; and C82G A111G A120U A145U C150A U176G, with 0.00244.
Consider A120U A145U C150U C169A, for which the reverse-splicing fitness turned out to be 0.0103.
Under C82U A111C A145C C150A U176A stands 0.0114.
Then C82A A111U C150G C169A, with 0.00953.
As to C82G A111U A120G C150U C169A, the reverse-splicing fitness was 0.0112.
Under C82A A111U A120U A145G C150G C169A U176G stands 0.00618; under C82A A111C A120G A145U C169U, 0.00891; under C82A A145U, 0.635.
Then A111G A145G C150U C169U U176C, with 0.0611; and C82G A111C A120G A145U C150U U176G, with 0.00613.
Under A111G A120U C150U C169A stands 0.00587; under C82G A120C A145C C150A C169U, 0.00799; under A111U A120G A145C C169U U176C, 0.0453.
As for C82G A111C A120C A145U C169A U176G, the reverse-splicing fitness came to 0.0056.
Under C82G A111C A120U A145C C150A C169A U176A stands 0.00209; under C82G A111G A120G C150A C169U U176G, 0.00912; under C82U A111U C150A C169A U176G, 0.00696.
Then C82G A145U C150G, with 0.0473.
Then C82U A111C C169U U176G, with 0.00681; and C82A A111G A120C A145U C150A C169G U176C, with 0.0245; and C82G A111U A145U C150A C169U U176G, with 0.00579.
With C82U A111C A120G A145U C150U U176G, the reverse-splicing fitness worked out at 0.00357.
Then A111C C150A C169G U176C, with 0.0246; and C82U A111G A120U A145C C150A C169U, with 0.00217; and C82A A111U A120G A145G C150G C169A U176G, with 0.00821.
Under A111C A120G A145U C150G C169G U176G stands 0.00412; under A111C A145G C150U C169U U176G, 0.00751; under C82A A111C A145G C150A C169U U176C, 0.0158.
With C82G A120G C150A U176A, the reverse-splicing fitness is 0.0119.
Under C82U A111U A120G A145G C150G U176G stands 0.00543; under C82A A120C A145U C169A U176G, 0.00493.
Then C82A A111U A120G A145U C150A C169A U176C, with 0.0119; and C82A A111G C150U C169G, with 0.00992; and A111C A120G A145C C150A C169G U176A, with 0.024.
Then A111G A120C A145U C150U C169U, with 0.173.
C82U A111G A120G A145G U176C: the reverse-splicing fitness worked out at 0.0192.
As to C82A A111C A120C A145U C150A C169U U176A, the reverse-splicing fitness amounted to 0.014.
Then C82A A111C A120C C169A U176G, with 0.00712.
As to C82G A111C A120U C169U, the reverse-splicing fitness was 0.00571.
As for C82U A111U A145C C169G, the reverse-splicing fitness stood at 0.0091.
Under C82U A111G A120C C150G C169A U176G stands 0.00578; under C82G A120U C169U U176G, 0.00154; under C82U A111C A145G C169A U176C, 0.0298.
Then C82A A111U A120G A145C C150U C169G U176G, with 0.00608.
Under C82U A111C A120C A145G C150U C169U U176G stands 0.00546; under C82A A111G A145G C150A C169G U176G, 0.00702.
For A111G C150U C169G U176A, the reverse-splicing fitness amounted to 0.0243.
Then A120G A145G C150U C169U U176C, with 0.175.
Then C82G A111C A120U A145U C150U U176A, with 0.00941; and C82A A111U A120C A145C C150U C169G U176G, with 0.00842.
Then A111C A120G C150U C169U U176G, with 0.00549; and C82G A111C A120C C150G C169G U176A, with 0.00891.
As to C82G A111U A120U A145G C150U U176G, the reverse-splicing fitness came to 0.00433.
Then C82G A111C C150U C169A U176G, with 0.00817; and C82G A111G A145C C150U C169G U176G, with 0.00619; and C82G A111U A120U C150U U176A, with 0.00931.
Then A120U A145C C169G, with 0.231; and C82A A111C A120U A145U C150G C169G U176G, with 0.00306; and C82G A111U A120C A145U C150A C169A U176G, with 0.00709.
Then C82U A111U A120G A145C C150G C169U U176C, with 0.0113; and C82U A120C A145U C150U C169A, with 0.0082.
Consider C82A A111C A120C C169U, for which the reverse-splicing fitness turned out to be 0.0124.
Then A111U A145C U176G, with 0.329; and C82U A111G C150G C169G U176G, with 0.00525; and C82U A111G C150G C169G U176C, with 0.00418.
Under C82U A111C A120G C150A C169A U176G stands 0.00529.
Under C82G A111U A120U C150U C169U U176C stands 0.00402; under C82U A111G A120U C169G U176C, 0.00265; under C82U A111C A145C C150U C169G U176C, 0.0168.
In the case of A111C A120U C150U C169A U176G, the reverse-splicing fitness was 0.00204.
Under A111U A120C C150U C169G U176G stands 0.00495; under A111U A120C C150U C169G U176C, 0.0132.
